Measured values from PMC3494461.

Substrate: CC(=O)C(=O)O
Test: purified protein
Type: biochemical, Escherichia coli
Conditions: 37 °C, pyruvate (1–90 mM) as donor and acceptor, no D-GAP

B1: DXP synthase (Escherichia coli K-12) (protein)
chain: SFDIAKYPTLALVDSTQELRLLPKESLPKLCDELRRYLLDSVSRSSGHFASGLGTVELTVALHYVYNTPFDQLIWDVGHQAYPHKILTGRRDKIGTIRQKGGLHPFPWRGESEYDVLSVGHSSTSISAGIGIAVAAEKEGKNRRTVCVIGDGAITAGMAFEAMNHAGDIRPDMLVILNDNEMSISENVGALNNHLAQLLSGKLYSSLREGGKKVFSGVPPIKELLKRTEEHIKGMVVPGTLFEELGFNYIGPVDGHDVLGLITTLKNMRDLKGPQFLHIMTKKGRGYEPAEKDPITFHAVPKFDPSSGCLPKSSGGLPSYSKIFGDWLCETAAKDNKLMAITPAMREGSGMVEFSRKFPDRYFDVAIAEQHAVTFAAGLAIGGYKPIVAIYSTFLQRAYDQVLHDVAIQKLPVLFAIDRAGIVGADGQTHQGAFDLSYLRCIPEMVIMTPSDENECRQMLYTGYHYNDGPSAVRYPRGNAVGVELTPLEKLPIGKGIVKRRGEKLAILNFGTLMPEAAKVAESLNATLVDMRFVKPLDEALILEMAASHEALVTVEENAIMGGAGSGVNEVLMAHRKPVPVLNIGLPDFFIPQGTQEEMRAELGLDAAGMEAKIKAWLA
Q: Which K0.5 does the source give for B1 here?
A: 51.0 ± 1.7 mM
